Results: the DeepSol protein solubility set

Experiment: soluble on expression in E. coli; label from the status in PepcDB or PDB records

Row | Sequence | soluble on expression in E. coli
1 | MRLVLSSLIVIAGLLSSQATAATAPEQTASADIRDSGFVYCVSGQVNTFNPQKASSGLIVDTLAAQLYDRLLDVDPYTYRLVPELAESWEVLDNGATYRFHLRRDVSFQKTAWFTPTRKLNADDVVFTFQRIFDRRHPWHNINGSSFPYFDSLQFADNVKSVRKLDNNTVEFRLTQPDASFLWHLATHYASVMSAEYAAQLSRKDRQELLDRQPVGTGPFQLSEYRAGQFIRLQRHDGFWRGKPLMPQVVVDLGSGGTGRLSKLLTGECDVLAWPAASQLTILRDDPRLRLTLRPGMNIAYLAFNTDKPPLNNPAVRHALALSINNQRLMQSIYYGTAETAASILPRASWAYDNDAKITEYNPQKSREQLKALGIENLTLHLWVPTSSQAWNPSPLKTAELIQADMAQVGVKVVIVPVEGRFQEARLMDMNHDLTLSGWATDSNDPDSFFRPLLSCAAINSQTNFAHWCNPEFDSVLRKALSSQQLASRIEAYEEAQNILEKELPILPLASSLRLQAYRYDIKGLVLSPFGNASFAGVSREKHEEVKKP | not soluble
2 | MRNELNSNEYNLMASRQSRKILTGTLAAMENVKIGQDENVDCGVVFYDEFKILIPIREMNVSREDKRVIRSMIGAEIDFIVMEFDDENRTAIASRKEAMELRKNLELKKHKVGEKIFVRVTSVGRNNCRVDCYGIEYRVPINEIDYGYIDKVDKYVQVGDVVPAIIKELDIDNNIVVVSIKEAKEDPYLGIVKSLNKGGEYLGVVTGIKDYGIFLTIRKGVNCLCPFPNWANFSPAVGEKFVVRIKSINYDEKKINANLMRPINQRNKYNPTWGLGLEHHHHHH | soluble
3 | MRNKPFYLLCAFLWLAVSHALAADSTITIRGYVRDNGCSVAAESTNFTVDLMENAAKQFNNIGATTPVVPFRILLSPCGNAVSAVKVGFTGVADSHNANLLALENTVSAASGLGIQLLNEQQNQIPLNAPSSAISWTTLTPGKPNTLNFYARLMATQVPVTAGHINATATFTLEYQ | not soluble
4 | MRNPFERMPTVLTADELIDKAFRRAEKAASSFKPRGNKVKKARLREELRVRTVSNVVRDNLRKVLERTPGLSTLPKFYQELVDVLVDRDTFHKAMAGIDWAIRIIRELEERYVERIRYSNDPNEIAELRRQFYGRVASVLRDIDDRLRYLNKAREVLKDLPVVDLEIPTVVIAGHPNVGKSTLLKALTTAKPEIASYPFTTRGINVGQFEDGYFRYQIIDTPGLLDRPISERNEIEKQAILALRYLGNLIIYIFDPSEHCGFPLEEQIHLFEEVHGEFKDLPFLVVINKIDVADEENIKRLEKFVKEKGLNPIKISALKGTGIDLVKEEIIKTLRPLAEKVAREKIERELRRYRSYL | soluble
5 | MRPAGRSNNQVRPVTLTRNYTKHAEGSVLVEFGDTKVLCTASIEEGVPRFLKGQGQGWITAEYGMLPRSTHTRNAREAAKGKQGGRTMEIQRLIARALRAAVDLKALGEFTITLDCDVLQADGGTRTASITGACVALVDALQKLVENGKLKTNPMKGMVAAVSVGIVNGEAVCDLEYVEDSAAETDMNVVMTEDGRIIEVQGTAEGEPFTHEELLILLALARGESNPL | soluble
6 | MRPCIVIPIYNHKDVIGLTVARLVTHGLPIFIVDDGSDAPTQAVLAALAGQHAGCVTLLRLPVNGGKGAAVMAGLRAARSDGFTHALQIDADGQHDAADVPTFMDAARDHPEAVILGQPVYDATVPKARLYGRYLTHAWVWIETLSFDIRDSMCGFRVYPLALACALIDEVALPTRMDFDIEILVRLHWRRTRFVAIPTRVTYAADGVSHFDVLWDNIRISQSHARLVAGMLVRLPLLLANKARPRQRADQAAAGKAHWWRIAERGSQLGMRLLALSCRLLGTRITALWLYPIVAYFLLTGRAARQASRQYFERLAAASAQDRTPAPGWRSAYRHMIAFAQSGLDKLAAWSGHVSPHRVRFDDPAPFEALMASGRGALVIGAHLGNLEMTRALATRHGQVKVTAVVYIEHARRFNRVLAGAHPEFATHLLEVSDFGPATAMRMQERIDAGELLVIVGDRVPATEMGRTVEATFLGAPARFAQGPYILAHALGCPVYLFFCLKTRQDYTLYFEPFAERIELPRHARATHLATLAQRYASRLEHHCRKAPFQWFNFFDFWARPKKDAHGLEHHHHHH | not soluble
7 | MRPDDKYHEKQAQVEATKLKQKVEALSPGDRQQIYEKGLELRSQQSKPQDASCLPALKVSDIEPTIPVTELDVVLTAGDIPVQYCAQPTNGMVYFRAFSSLNTLPEELRPYVPLFCSVLTKLGCGLLDYREQAQQIELKTGGMSASPHVLPDDSHMDTYEQGVLFSSLCLDRNLPDMMQLWSEIFNNPCFEEEEHFKVLVKMTAQELANGIPDSGHLYASIRAGRTLTPAGDLQETFSGMDQVRLMKRIAEMTDIKPILRKLPRIKKHLLNGDNMRCSVNATPQQMPQTEKAVEDFLRSIGRSKKERRPVRPHTVEKPVPSSSGGDAHVPHGSQVIRKLVMEPTFKPWQMKTHFLMPFPVNYVGECIRTVPYTDPDHASLKILARLMTAKFLHTEIREKGGAYGGGAKLSHNGIFTLYSYRDPNTIETLQSFGKAVDWAKSGKFTQQDIDEAKLSVFSTVDAPVAPSDKGMDHFLYGLSDEMKQAHREQLFAVSHDKLLAVSDRYLGTGKSTHGLAILGPENPKIAKDPSWIIR | not soluble
8 | MRPIPEGYEAVFETVVTPEMTVRFEELGPVHPVYATYWMVKHMELAGRKIILPFLEEGEEGIGSYVEARHLASALPGMRVRVVARHEKTEGNRVYARVEAYNELGDLIGVGRTEQVILPKAKVEALFRRLKERWEAERSPS | soluble
9 | MRPMTHVPVLYQEALDLLAVRPGGVYVDATLGGAGHARGILERGGRVIGLDQDPEAVARAKGLHLPGLTVVQGNFRHLKRHLAALGVERVDGILADLGVSSFHLDDPSRGFSYQKEGPLDMRMGLEGPTAKEVVNRLPLEALARLLRELGEEPQAYRIARAIVAAREKAPIETTTQLAEIVRKAVGFRRAGHPARKTFQALRIYVNDELNALKEFLEQAAEVLAPGGRLVVIAFHSLEDRVVKRFLRESGLKVLTKKPLVPSEKEAAQNPRARSAKLRAAEKEAP | soluble
10 | MRPMTIDIDELAFALDTPGIDHYLDLYSGKVLLISAEAPDPELDALLENEPERLLLIDPLSTTQSLGLMQDFLREVEEPHAYATLANALQSRKPFKAFKHSLMEYPELLQDWYRYQNERLREWALDWLEDNDIQPAARQSPTSLLPPPGKPFA | not soluble
11 | MRPVLLLCCLFLSATAQAEDCSPQTSVGSWCELPLAALHPTQQNVGLLQVEDDQAKLAGKKPKALERYLRKKEIPVVIGPGGRFYLTDRHHLSSALWRLDPKQGVPVKVIGRLPQASDFWEKMQENHWVWLHDARGAEIPPEALPDALAGLGDDPYRALAGYAEDENAFDKDRQSYFIEFHWARYFGERMHWRPISRATLPDDLKQALRLACEPAARELPGYRQDCPHKLAAALEHHHHHH | not soluble
12 | MRPYKRVLIKLSGGALADQTGNSFNSKRLEHIANEILSIVDLGIEVSIVIGGGNIFRGHLAEEWGIDRVEADNIGTLGTIINSLMLRGVLTSKTNKEVRVMTSIPFNAVAEPYIRLRAVHHLDNGYIVIFGGGNGQPFVTTDYPSVQRAIEMNSDAILVAKQGVDGVFTSDPKHNKSAKMYRKLNYNDIVRQNIQVMDQAALLLARDYNLPAHVFNFDEPGVMRRICLGEHVGTLINDDVSMLVREKLEHHHHHH | not soluble
13 | MRQTNNKESTMKPTADILASIIEEVRPLTSKGIVADYIPALAKVPSDKLGIAVFTNQGEVITAGDAQEGFSIQSISKVLSLTLAMGLYQPDELWSRVGKEPSGQAFNSLIQLEMEQGIPRNPFINAGAIVVCDMLQSRLSAPRQRLLEFVRQLSGEPQIAYDKVVAASEMMHSDRNAAIAYLMRSFGNFHNEVIPVLHNYFHACALKMSCVELAKTFSYLANKGVSVVTGETVITPTQSKQTNALLATCGLYDGAGEFAYRVGMPGKSGVGGGIIAVVPGEMTIAVWSPALDQSGNSLAGTRALELLAQRIGRSIFLEHHHHHH | soluble
14 | MRQVDFFTLRLFLSAVEEGQIGRAALRENIAPSAATKRIQELEDVVGLRLLERTPKGVILSPAGEVLVRHIRQIFTNVDELRAELSAFSEGVRGEVSVASARSIIAPYLAHEFGAYIRDYPLVDLIVREVENAAIVQAVAQGDADIGVFAAAPALDLSGVDVMPYRQDRMVVVMSHGHRLAQRQSVTFEDLLSENLIVPAALHMALRTAADRLGREFEPKYGVTSAGVAISLAQEGLGVTIQPECLLDLKVFEHAVGVELAESWANRSIHIATARGRAAGPAANLLLKQLLDRPRALSSVSD | not soluble
